System: MS2 coat protein
Assay: apparent KD of MS2 coat protein; higher = weaker reporter binding
Conditions: Eterna round: R107
Method in brief: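 Designed RNA switches were transcribed on-chip from Illumina sequencing clusters. They were then titrated with SNAP-549-labelled MS2 coat protein (twofold steps, 0.7 or 1.5 nM to 3 µM; 0.8–1.5 h to 10–20 min per step) in 100 mM Tris-HCl pH 7.5, 80 mM KCl, 4 mM MgCl2, without or with constant ligand. Apparent KD is the per-design median of normalised cluster binding-curve fits.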

[1] = input ligand: theophylline 20 uM
[2] = input ligand: theophylline 2 mM
[3] = input ligand: tryptophan 2.4 mM

Sequence | apparent KD of MS2 coat protein (input ligand: arginine 13.2 mM) [nM] | apparent KD of MS2 coat protein (input ligand: none) [nM] | apparent KD of MS2 coat protein [1] [nM] | apparent KD of MS2 coat protein [2] [nM] | apparent KD of MS2 coat protein [3] [nM]
UAUGCACAUGAGGAUCACCCAUGUAUGGAAGGAGCGGUGAAUAAACCAGGUAGGUCGCCAUGGUGAGGAUCAUCUAUGUAAUCGU [Exclusion - Arginine A (Freestyle 6)] | 62.3 | 93.2 | 125 | 103 | 87.8
UAUUUUGGGCGCGAGCCCGGGAUAAUUGAUACCAGUGAAGAAGAGCGCCCUUGGCAGCGAAUCCUAACAUGAGGAUCACCCAUGU [5.Q] | 52.5 |  | 65.4 |  | 45.1
UCAUGAGGAUCACCCAUGUGGCGUCUUGAUACCAGACGAGAAGUAGUCCCUUGGCAGCAAAUACAUGAGGAUCACCCAUGUAGGA [cccmullin2] | 24.5 |  | 38.2 |  | 43
UCCUCCUCCGCAAGGAGGAGGAGUUGCGAUACCAGCACGGUAACGUGCCCUUGGCAGCGCACAUGAGGAUCACCCAUGUGGUGUU [#1 Exclusion - Theophylline A Attempt #12 (HarryS)] | 52.7 | 228 | 455 | 379 | 231
UCGCCCGGGUCGGCCGCCACUGAGGUAAUAUGACAUGAGGAUCACCCAUGUUGUCAUGUGGAACAUAGGACCGGGACCCGGGCGA [Exclusion - Tryptophan B Attempt #1 (HarryS)] | 9.15 | 8.61 | 15.1 | 15.2 | 13.4
UCGCUCGCCGAAAGGCGAGCGAGUUGCGAUACCAGCCCGGAAACGGGCCCUUGGCAGCGCACAUGAGGAUCACCCAUGUCAUGUU [#1 Exclusion - Theophylline A Attempt #3 (HarryS)] | 13.4 | 19.4 | 25.3 | 58.7 | 31.3
UCGGACAUGAGGAUCACCCAUGUAAAUCCUCGAGGACCGGUACGGCCGCCACUCGAACGAGUGGCGCGCGAGUGCGCACUCGCGC [aFa] | 22.2 | 33.2 | 57.9 | 35.8 | 26.6
UCGGGCAUGGCGGCCGCCACUGGUUGGCGUGCGGAUGAGGGAACAUGAGGAUCACCCAUGUUGGUUAGGACCGGGCUUGCGUCGU [knkmullin] | 11.8 | 16.5 | 18 | 15.2 | 13.4
UCGUGUAUAACGGAUACCAGUGAGAAGGAUACAUGAGGAUCACCCAUGUGAGUUGAUCCACACCCUUGGCAGCUGUAUAUAUCUA [alamullin] | 103 |  | 468 |  | 290
UCGUGUAUAUCGGAUACCAGUGAGAAGGAUACAUGAGGAUCACCCAUGUGAGUUGAUGUACACCCUUGGCAGCUGUAUAUAUCUA [.plullin] | 36 |  | 62.7 |  | 47.9
UCGUUUGAGGCGGCCGCCACUGGUCUCAUGGUCAACAUGAGGAUCACCCAUGUAUCUUUGCUAAGCAGGACCGGGCCUCGAGCGA [#19 Exclusion Tryptophan B] | 43.5 |  | 87.4 | 87.5 | 
UGAAAGUAGGGAAGGAGCGCUACAACAUGAGGAUCACCCAUGUUAUGAGGAUCACCCGUGUGGCAGGUAGGUCGCCCAAAACAUG [#13 Same State - Arginine B] | 40.6 | 43.9 | 46.7 | 35.6 | 31.9
UGACAGAUAACCGCUGGUGCUCUCGAGUUGCGAGGACCGGUACGGCCGCCACUCGACAACAUGAGGAUCACCCAUGUUGCGGGUC [Lareara] | 30.7 |  | 108 | 156 | 
UGACAUUGCUCAGAUACCAGACAUGAGGAUCACCCAUGUGCCAAACGUACAAUAAUAAAUGUCCCUUGGCAGCUGAGCAAUGUCU [TheoBX 14 #MS2Left #Theo2] | 13.4 |  | 17.3 |  | 11.6
UGACAUUGCUGCGAUACCAGACAUGAGGAUCACCCAUGUACCAAGGUACGAAAAUAACAUGUCCCUUGGCAGCGCAGCAAUGUCU [MAT - Exclusion Theophlline B - Mod of Eli - D4] | 12.6 |  | 25.7 |  | 12.1
UGACGAGGCCUGGAUACCAGCGACAUGAGGAUCACCCAUGUAUGAGGAUCAGCCAUGUUAUGCCCUUGGCAGCCACGAAGGUCAG [WQQMULLIN] | 21.6 | 25.4 | 38.2 | 220 | 22.9
UGAGUUAGACAAAAGUCUAGCUCUGGUGAAGGAGCGUCCGAAAGGACAGGUAGGUCGCACCACCUGAGGAUCACCCGGGUUCCUA [ArgAS 13 #OpenEnded #AlternativeMS2] | 360 | 167 | 544 | 991 | 115
UGAUACCAGUCGGCCGCCACUACAUGAGGAUCACCCAUGUAUGGGUCAAUGCUAGAUACUAGCAGUAGGACCGGGACUGGUAUCU | 11.4 |  | 14.8 | 13.2 | 
UGAUCCUACAGAGAUACCAGUGCCACUGAGUGACCAGACACAUGAGGAUCACCCAUGUAACACCCUUGGCAGCUCAACUAGAGGG [Same State Theophylline B GF18] | 16.8 |  | 22.3 |  | 19.7

From the supplement of paper PMC9170038
